# Paper PMC11828899, “Structural insights into human brachyury DNA recognition and discovery of progressible binders for cancer therapy”
# Substitutions are numbered along the chain they refer to.
# B1: 24 bp palindromic T-box DNA (dsDNA)
# DNA 1: AATTTCACACCTAGGTGTGAAATT
# DNA 2: AATTTCACACCTAGGTGTGAAATT
# B2: 26 bp palindromic T-box DNA (dsDNA)
# DNA 1: GAATTTCACACCTAGGTGTGAAATTC
# DNA 2: GAATTTCACACCTAGGTGTGAAATTC
# B3: TA50 palindromic 50 bp (TA50-F/TA50-R) (dsDNA)
# DNA 1: CATGCATGCAGGGAATTTCACACCTAGGTGTGAAATTCCCATTCGTGCGA
# DNA 2: TCGCACGAATGGGAATTTCACACCTAGGTGTGAAATTCCCTGCATGCATG
# How the values were obtained:
# [1] = biological target: T1, Brachyury DNA binding domain WT (Homo sapiens, UniProt O15178 41-224); test: X-ray crystallography; 2.25 A; two protomers per duplex; EMSA: 25 mM HEPES pH 7.4, 75 mM NaCl, 10% glycerol, 0.1% Tween 20, 1 mM TCEP, on ice 10 min; SPR: 10 mM HEPES pH 7.5, 150 mM NaCl, 1 mM DTT, 1% DMSO, temperature not stated; settings: protein: recombinant; chain copies: 2; blunt, self-complementary, 2 copies of strand
# T1 sequence: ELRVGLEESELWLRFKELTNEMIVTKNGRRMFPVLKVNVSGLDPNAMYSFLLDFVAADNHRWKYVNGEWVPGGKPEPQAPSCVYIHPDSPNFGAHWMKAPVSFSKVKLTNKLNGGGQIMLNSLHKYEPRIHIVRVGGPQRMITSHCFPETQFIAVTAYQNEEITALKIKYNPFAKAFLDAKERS
# [2] = biological target: T2, Brachyury DNA binding domain G177D (Homo sapiens, UniProt O15178 41-224, G177D); test: X-ray crystallography; 2.15 A; two protomers per duplex; EMSA: 25 mM HEPES pH 7.4, 75 mM NaCl, 10% glycerol, 0.1% Tween 20, 1 mM TCEP, on ice 10 min; SPR: 10 mM HEPES pH 7.5, 150 mM NaCl, 1 mM DTT, 1% DMSO, temperature not stated; settings: protein: recombinant; chain copies: 2; blunt, self-complementary, 2 copies of strand
# T2 sequence: T1 sequence with G137D
# [3] = biological target: T3, Brachyury full-length G177D (Homo sapiens, UniProt O15178 1-435, G177D); test: SPR; protein immobilized; steady-state fit; EMSA: 25 mM HEPES pH 7.4, 75 mM NaCl, 10% glycerol, 0.1% Tween 20, 1 mM TCEP, on ice 10 min; SPR: 10 mM HEPES pH 7.5, 150 mM NaCl, 1 mM DTT, 1% DMSO, temperature not stated; settings: protein: recombinant; tags: C-terminal AVI tag, biotinylated; N-terminal 9His-GST removed with TEV (construct stated for SPR/DSF); chain copies: 2; label: 32P 5' end (EMSA); none stated (SPR); blunt
# T3 sequence: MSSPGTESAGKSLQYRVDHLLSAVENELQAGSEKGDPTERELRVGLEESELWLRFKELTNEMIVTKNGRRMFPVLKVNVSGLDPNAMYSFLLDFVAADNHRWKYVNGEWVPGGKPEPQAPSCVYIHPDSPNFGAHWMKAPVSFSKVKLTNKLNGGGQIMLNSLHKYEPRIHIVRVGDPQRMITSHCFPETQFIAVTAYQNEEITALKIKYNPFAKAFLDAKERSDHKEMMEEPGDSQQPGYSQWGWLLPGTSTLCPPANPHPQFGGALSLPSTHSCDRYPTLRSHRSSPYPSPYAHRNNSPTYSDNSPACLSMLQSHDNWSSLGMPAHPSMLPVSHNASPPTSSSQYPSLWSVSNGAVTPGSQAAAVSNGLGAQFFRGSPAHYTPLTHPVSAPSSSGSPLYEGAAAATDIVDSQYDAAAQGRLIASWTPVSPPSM
# [4] = biological target: T4, Brachyury full-length WT (Homo sapiens, UniProt O15178 1-435); test: as above; settings: protein: recombinant; tags: C-terminal AVI tag, biotinylated; N-terminal 9His-GST removed with TEV (construct stated for SPR/DSF); chain copies: 2; label: 32P 5' end (EMSA); none stated (SPR); blunt
# T4 sequence: T3 sequence with D177G
# [5] = biological target: T3, Brachyury full-length G177D; test: EMSA; apparent; Hill slope 1.8; DNA 1-5 nM; EMSA: 25 mM HEPES pH 7.4, 75 mM NaCl, 10% glycerol, 0.1% Tween 20, 1 mM TCEP, on ice 10 min; SPR: 10 mM HEPES pH 7.5, 150 mM NaCl, 1 mM DTT, 1% DMSO, temperature not stated; settings: protein: recombinant; tags: C-terminal AVI tag, biotinylated; N-terminal 9His-GST removed with TEV (construct stated for SPR/DSF); chain copies: 2; label: 32P 5' end (EMSA); none stated (SPR); blunt
# [6] = biological target: T4, Brachyury full-length WT; test: EMSA; apparent; Hill slope 2.3; DNA 1-5 nM; EMSA: 25 mM HEPES pH 7.4, 75 mM NaCl, 10% glycerol, 0.1% Tween 20, 1 mM TCEP, on ice 10 min; SPR: 10 mM HEPES pH 7.5, 150 mM NaCl, 1 mM DTT, 1% DMSO, temperature not stated; settings: protein: recombinant; tags: C-terminal AVI tag, biotinylated; N-terminal 9His-GST removed with TEV (construct stated for SPR/DSF); chain copies: 2; label: 32P 5' end (EMSA); none stated (SPR); blunt
binder,measurement,setting,value
B1,binding result,[1],binds
B2,binding result,[2],binds
B3,Kd,[3],17.9 nM
same,Kd,[4],14.8 ± 2.4 nM
same,Kd,[5],1.2 nM
same,Kd,[6],1.4 nM
